The target in assay [1] is T1, PDGF-R β expressed on transfectant cells (CHO PDGF-R β transfectants, CHO C4 line); Sp2/0 PDGF-R β … (human, UniProt P09619). Nature of the assay: competition with 125I-labeled M4TS.11 on Sp2/0 PDGF-R β transfectant cells. On the procedure:
Figure 11: FIG. 11 is a graph depicting competitive binding of muM4TS.11 (closed squares) and HuM4TS.11 (open squares) and HuM4TS.11(gamma 1) (open diamonds). Increasing concentrations of cold competitor antibodies were incubated with the Sp2/0 transfectants expressing PDGF-R β in the presence of radiolabeled tracer muM4TS.11, and the ratio of bound/free radioactivity determined. The results shown are mean values of triplicate samples.
To assess the ability of HuM4TS.11 to compete with the muAb for receptor binding, increasing concentrations of the two antibodies were respectively incubated on ice for one hour with Sp2/0 PDGF-R β transfectant cells and a fixed amount of tracer ^125I-labeled M4TS.11. The sample tubes were processed as in the blocking experiment described. HuM4TS.11 competed less well than muM4TS.11 (FIG. 11).

A further assay concerns PDGF-R β. Nature of the assay: Competition with 125I-labeled murine antibody tracer on Sp2/0 PDGF-R β transfectant cells. The assay is classed as binding, human. The following applies: Sp2/0 PDGF-R β transfectants. On the procedure: To assess the ability of HuM4TS.22 to compete with muM4TS.22 for receptor binding, increasing concentrations of the two antibodies were respectively incubated on ice for one hour with Sp2/0 PDGF-R β transfectant cells and a fixed amount of tracer ^125 I-labeled muAb. The sample tubes were processed as in the blocking experiment just described.
To assess the ability of HuM4TS.11 to compete with the muAb for receptor binding, increasing concentrations of the two antibodies were respectively incubated on ice for one hour with Sp2/0 PDGF-R β transfectant cells and a fixed amount of tracer ^125 I-labeled M4TS.11. The sample tubes were processed as in the blocking experiment described. […] The binding affinities calculated from the data were: Ka =5×10^8 M^-1 for the muAb and 3×10^7 M^-1 for the HuAb.

Assay [2] has as its system CHO transfectant cell line expressing PDGF-R β (CHO C4). As to the kind of experiment: Inhibition of PDGF BB-induced proliferation (3H-thymidine) of CHO C4 cells. The assay is classed as cell-based, Chinese hamster. The procedure:
To determine the ability of muM4TS.11 and muM4TS.22 to block PDGF-mediated proliferation, a CHO transfectant cell line expressing PDGF-R β (CHO C4) was generated, as described above. Proliferation of this line, as measured by incorporation of ^3 H-thymidine by DNA synthesis, is stimulated several-fold by PDGF BB. The CHO PDGF-R β transfectants were plated in a 96-well tissue culture plate at about 50,000 cells/well in Ham's F-12+10% FCS and incubated for 1-2 days. The medium was removed, and the cells were washed once with serum-free medium (Ham's F-12+1 mg/ml BSA) and incubated in this media for 1-2 days to put them in a quiescent state. The appropriate amount of antibody in serum-free medium was added, and after 1-3 hours, 50 ng/ml PDGF BB was added. After overnight incubation, 1 μCi ^3 H-thymidine was added, and after a final 4 hour incubation, the cells were harvested using a PHD cell harvester (Cambridge Technology) and analyzed with a scintillation counter.

Assay [3] addresses T1, PDGF-R β expressed on transfectant …. As to the kind of experiment: competition with 125I-labeled muM4TS.22 on Sp2/0 PDGF-R β transfectant cells. The procedure: Figure 5: FIG. 5 is a graph depicting competitive binding of muM4TS.22 (closed circles) and HuM4TS.22 (open circles). Increasing concentrations of cold competitor antibodies were incubated with the Sp2/0 transfectants expressing PDGF-R β in the presence of radiolabeled tracer muM4TS.22, and the ratio of bound/free radioactivity determined. The results shown are mean values of triplicate samples.
To assess the ability of HuM4TS.22 to compete with muM4TS.22 for receptor binding, increasing concentrations of the two antibodies were respectively incubated on ice for one hour with Sp2/0 PDGF-R β transfectant cells and a fixed amount of tracer ^125I-labeled muAb. The sample tubes were processed as in the blocking experiment just described. MuM4TS.22 and HuM4TS.22 competed with equal efficiencies (FIG. 5).

B1: HuM4TS.11 (antibody, V domains shown)
VH: QVQLVQSGAEVKKPGASVKVSCKASGYTFTNCWMHWVRQAPGQGLEWIGYINPTTGYSEYNQNFKDKATITADKSTSTAYMELSSLRSEDTAVYYCTSNYGHYDWFGNWGQGTLVT
VL: DIQMTQSPSSLSASVGDRVTITCRASESVDSYGNSFMHWYQQKPGKAPKLLIYRASNLESGIPSRFSGSGSRTDFTLTISSLQPEDVATYYCQQSNEDPPTFGQGTKVEIK
In assay [1], B1 gave a Ka of 3e+07 M⁻¹.

B2: HuM4TS.11(gamma1): same variable domains as HuM4TS.11 but a gamma1 rather than gamma4 heavy chain constant region (antibody, V domains shown)
VL: DIQMTQSPSSLSASVGDRVTITCRASESVDSYGNSFMHWYQQKPGKAPKLLIYRASNLESGIPSRFSGSGSRTDFTLTISSLQPEDVATYYCQQSNEDPPTFGQGTKVEIK
VH: QVQLVQSGAEVKKPGASVKVSCKASGYTFTNCWMHWVRQAPGQGLEWIGYINPTTGYSEYNQNFKDKATITADKSTSTAYMELSSLRSEDTAVYYCTSNYGHYDWFGNWGQGTLVT
Consider B2, for which, in the assay with PDGF-R β, the “competition with labeled murine antibody for receptor binding / binding affinity, in words” value is “higher binding affinity than HuM4TS.11”. For the same molecule, the “binding affinity Ka” value in the assay with PDGF-R β (calculated from competitive binding data) is 1.6e+08 M⁻¹. In assay [2], the “inhibition of PDGF-mediated proliferation compared with another antibody” value is on record as “about equally well”.

B3: HuM4TS.11.2: HuM4TS.11 version in which a few additional human framework residues were changed to their murine counterparts (antibody, V domains shown)
VL: DIVLTQSPSSLSASVGDRVTITCRASESVDSYGNSFMHWYQQKPGKAPKLLIYRASNLESGIPSRFSGGGSRTDFTLTISSLQPEDVATYYCQQSNEDPPTFGQGTKVEIK
VH: QVQLVQSGAEVKKPGASVKVSCKASGYTFTNCWMHWVKQRPGQGLEWIGYINPTTGYSEYNQNFKDKATLTADKSTSTAYIELSSLRSEDTAVYYCTSNYGHYDWFGNWGQGTLVT
As for B3, the “competition with labeled murine antibody for receptor binding / binding affinity, in words” value with PDGF-R β was “the same binding characteristics for PDGF-R β”. Besides, the “inhibition of PDGF-mediated proliferation compared with another antibody” value in assay [2] is listed as “the same level of inhibition of PDGF-stimulated cell proliferation as does HuM4TS.11”.

B4: muM4TS.22 (antibody, V domains shown)
VH: QVQLKESGPGLVAPSQSLSITCTVSGFSLTNYAINWVRQPPGQGLEWLGIIWTGGGTSYNSALKSRLSISKDNSKSQVFLKMNSLQTDDTARYYCARTGTRGYFFDYWGQGTTLTVSS
VL: DIQMNQSPSSLSASLGDTITITCHASQNINVWLSWYQRKPGNIPKLLIYKASNLHTGVPSRFSGSGSGTGFTLTISSLQPEDIATYYCQQGQSFPFTFGSGTKLEIK
In assay [3], B4 came in with a Ka of 2.6e+08 M⁻¹.

B5: HuM4TS.22 (antibody, V domains shown)
VH: QVQLQESGPGLVKPSETLSLTCTVSGFSLTNYAINWVRQPPGKGLEWLGIIWTGGGTSYNSALKSRLTISKDTSKNQVSLKLSSVTAADTAVYYCARTGTRGYFFDYWGQGTLVTVSS
VL: DIQMTQSPSSLSASVGDRVTITCHASQNINVWLSWYQQKPGKAPKLLIYKASNLHTGVPSRFSGSGSGTGFTLTISSLQPEDIATYYCQQGQSFPFTFGGGTKVEIK
Turning to B5, the Ka in assay [3] was 4e+08 M⁻¹.

Values taken from patent US5882644A, “Monoclonal antibodies specific for the platelet derived growth factor β receptor and methods of use thereof” (Protein Design Labs, Inc., priority 1996, dated 1999).
